According to publication PMC4141206 (FEBS Open Bio, 2014):

Target: ANAPC2CW fragment (mouse ANAPC2 cullin-Winged-helix subdomain; residues 512–837) (mouse, UniProt Q8BZQ7 512-837)
Experiment: NMR titration

Sequence of ANAPC2CW fragment (mouse ANAPC2 cullin-Winged-helix subdomain; residues 512–837) (Q8BZQ7 512-837): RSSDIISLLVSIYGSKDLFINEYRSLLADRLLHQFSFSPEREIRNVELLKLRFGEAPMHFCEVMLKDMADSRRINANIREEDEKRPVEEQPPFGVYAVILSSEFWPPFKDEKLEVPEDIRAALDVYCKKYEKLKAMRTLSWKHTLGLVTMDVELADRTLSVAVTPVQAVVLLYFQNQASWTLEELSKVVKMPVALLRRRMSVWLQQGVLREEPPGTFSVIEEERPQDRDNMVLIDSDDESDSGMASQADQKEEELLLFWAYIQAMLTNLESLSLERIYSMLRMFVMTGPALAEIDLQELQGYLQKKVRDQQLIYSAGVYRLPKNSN

B1: Emi2 ZBR–RL fragment (mouse Emi2; residues 547–641), 13C- and 15N-labeled (domain or fragment, UniProt Q8CDI2 546-640, looked up)
chain: LTHLRSKQEQYVKVARTLFTDEALKPCPRCQSPAKYQPHKKRGLCSRLACGFDFCVLCLCAYHGSEDCRRGSAKARGSKDVLPGSAQSKRNLKRL
modifications: [15N, 13C]-labeled
binding result: binds
